Experiment [1] concerns the target T1, APRIL (Acro Biosystems, Cat: APL-H52D1) (UniProt O75888 115-250, limits assumed).
T1 construct: also called ARPIL
T1 sequence (looked up): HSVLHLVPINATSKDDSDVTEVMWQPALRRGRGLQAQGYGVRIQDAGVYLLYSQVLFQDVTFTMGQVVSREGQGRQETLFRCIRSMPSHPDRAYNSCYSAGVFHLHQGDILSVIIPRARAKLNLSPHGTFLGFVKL
The experiment is described as follows: ELISA, APRIL coated at 1 ug/mL, anti-human Fc-HRP, OD450. Here is the method:
(§1) The capabilities of B613301, B613302, and B613303, which are fusion proteins of anifrolumab and TACI-BCMA, to bind to BAFF and APRIL were assessed by ELISA as follows: [0548] BAFF (PeproTech, Cat: 310-13) or ARPIL (Acro Biosystems, Cat: APL-H52D1) was diluted to 1 μg/mL with PBS, and a 96-well plate (Costar, Cat: 3590) was coated with the dilution overnight at 4° C. The plate was washed with PBST and blocked with Blocking Buffer (PBST containing 1% BSA) at 37° C. for 1 h. The plate was tapped. The test antibodies were diluted with Blocking Buffer. Incubation was performed at 37° C. for 1.5 h. The plate was washed with PBST. An HRP-mouse anti-human Fc antibody (GenScript, Cat: A01854-200) was diluted with Blocking Buffer. Incubation was performed at 37° C. for 40 min. The plate was washed with PBST. 100 μL of TMB substrate solution (Biopanda, Cat: TMB-S-003) was added, and color development was performed at 37° C. for 3 min. 100 μL of ELISA stop solution (Solarbio, Cat: C1058) was added. OD450 was measured.

Experiment [2] concerns the target T2, recombinant human APRIL (R&D cat: 5860-AP-010/CF) (human, UniProt O75888 105-250, limits assumed).
T2 sequence (looked up): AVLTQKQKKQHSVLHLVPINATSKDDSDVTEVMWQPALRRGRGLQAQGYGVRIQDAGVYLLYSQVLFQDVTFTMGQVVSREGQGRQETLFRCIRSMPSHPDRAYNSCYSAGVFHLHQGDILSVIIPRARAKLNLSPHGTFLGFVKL
Kind of experiment: cell-based or functional assay.

Experiment [3] has as its target T3, BAFF (Sino biological, 10056-HNCH) (UniProt Q9Y275 134-285, biotinylated in the blocking ELISA (site not stated)).
T3 construct: also called BLyS
Kind of experiment: competition ELISA: fusion protein pre-mixed with biotinylated BAFF, added to coated BAFF-R. Here is the method:
The above TACI-Fc fusion proteins' function of blocking the binding of BAFF to BAFF-R was further assessed as follows: The receptor protein was diluted with a pH 7.4 PBS (BasalMedia, B320) buffer to 2 μg/mL, and the resulting dilution was added to a 96-well microplate (Corning, 3590) at 100 μL/well. The plate was incubated overnight at 4° C. After the liquid was discarded, 1% Casein blocking solution (Thermo, 37528) was added at 200 μL/well for blocking, and the plate was incubated at 37° C. for 2 h. After the blocking, the blocking solution was discarded, and the plate was washed 3 times with a PBST buffer (pH 7.4 PBS containing 0.1% tween-20) and set aside for later use. A biotinylated ligand protein at a fixed concentration was mixed with a serially diluted antibody or fusion protein, and the mixture was pre-incubated at 37° C. for 30 min and then added to the blocked microplate. The plate was incubated at 37° C. for 1.5 h. After the incubation, the plate was washed 3 times with PBST, and streptavidin-HRP (Invitrogen, 434323, diluted in a 1:4000 ratio) was added at 100 μL/well. The plate was incubated at 37° C. for 1 h. The supernatant was removed. […] The absorbance at 450 nm was measured using a microplate reader. Curves for the inhibition of the binding of the ligand to the receptor were fitted using software, and IC₅₀ values were calculated. […]

Experiment [4] concerns the target T4, BAFF (PeproTech, Cat: 310-13) (UniProt Q9Y275 134-285). Kind of experiment: ELISA, BAFF coated at 1 ug/mL, anti-human Fc-HRP, OD450. Here is the method: as §1
Experiment [5] has as its target T1, APRIL (Acro Biosystems, Cat: APL-H52D1). The experiment is described as follows: ELISA, APRIL coated at 1 ug/mL, anti-human Fc-HRP, OD450. Here is the method:
The capabilities of fusion proteins B606401, B637302, B746201, and B805201 to bind to BAFF and APRIL were assessed by ELISA as follows:
as §1, with “BAFF” for “The capabilities of B613301, B613302, and B613303, which are fusion proteins of anifrolumab and TACI-BCMA, to bind to BAFF and APRIL were assessed by ELISA as follows: [0548] BAFF”, “plate” for “plate (Costar, Cat: 3590)”
This is another data set of the same source.

Experiment [6] addresses T4, BAFF (PeproTech, Cat: 310-13). The experiment is described as follows: ELISA, BAFF coated at 1 ug/mL, anti-human Fc-HRP, OD450. As for the experimental part:
as §1
This is another data set of the same source.

Where two headings read alike, the source gives them in different places.

B1: Telitacicept (RCT-18) (Fc fusion)
chain: SRVDQEERFPQGLWTGVAMRSCPEEQYWDPLLGTCMSCKTICNHQSQRTCAAFCRSLSCRKEQGKFYDHLLRDCISCASICGQHPKQCAYFCENKLRSPVNLPPELDKTHTCPPCPAPEAEGAPSVFLFPPKPKDTLMISRTPEVTCVVVDVSHEDPEVKFNWYVDGVEVHNAKTKPREEQYNSTYRVVSVLTVLHQDWLNGKEYKCKVSNKALPSSIEKTISKAKGQPREPQVYTLPPSRDELTKNQVSLTCLVKGFYPSDIAVEWESNGQPENNYKTTPPVLDSDGSFFLYSKLTVDKSRWQQGNVFSCSVMHEALHNHYTQKSLSLSPGK
notes: Positive control TACI-Fc; also called RC18
With B1, in experiment [1], the 50% effective concentration (EC50) came to 1.25 nM and the Emax came to 2.5. In experiment [2], the “Flow cytometry proliferating B cell proportion (%), mean value, APRIL-induced, drug at 4.12 nM (IgG1: 55.30)” value amounted to 48.1%; the “Flow cytometry proliferating B cell proportion (%), mean value, APRIL-induced, drug at 12.35 nM (IgG1: 54.80)” value was determined as 49.2%; the “Flow cytometry proliferating B cell proportion (%), mean value, APRIL-induced, drug at 37.04 nM (IgG1: 56.63)” value was 50.1%; the “Flow cytometry proliferating B cell proportion (%), mean value, APRIL-induced, drug at 111.11 nM (IgG1: 55.83)” value turned out to be 50.3%. For the same molecule, in experiment [2], the “Flow cytometry proliferating B cell proportion (%), mean value, APRIL-induced, drug at 333.33 nM (IgG1: 56.27)” value stood at 49.1% and the “Flow cytometry proliferating B cell proportion (%), mean value, APRIL-induced, drug at 1000.00 nM (IgG1: 53.27)” value was determined as 46.3%. Further, in experiment [3], the half-inhibitory concentration (IC50) turned out to be 27.5 nM. Also, it took 0.801 nM to reach a half-maximal effect in experiment [4] (EC50). In experiment [5], this molecule displayed an EC50 of 0.536 nM and an Emax of 2.98. In addition, the EC50 in experiment [6] came to 0.801 nM.

For the origin of these results see patent US20260056186A1 (JIANGSU HENGRUI PHARMACEUTICALS, published 2026).
